These are literature values, as cited in patent US20250326839A1, “TREATMENT OF DISEASES RELATED TO COLONY-STIMULATING FACTOR 1 RECEPTOR DYSFUNCTION USING TREM2 AGONISTS” (Vigil Neuroscience, Inc., priority 2020, published 2025).

The target in this series is T1, TREM2 (Homo sapiens, UniProt Q9NZC2).
T1 sequence (Q9NZC2 19-230): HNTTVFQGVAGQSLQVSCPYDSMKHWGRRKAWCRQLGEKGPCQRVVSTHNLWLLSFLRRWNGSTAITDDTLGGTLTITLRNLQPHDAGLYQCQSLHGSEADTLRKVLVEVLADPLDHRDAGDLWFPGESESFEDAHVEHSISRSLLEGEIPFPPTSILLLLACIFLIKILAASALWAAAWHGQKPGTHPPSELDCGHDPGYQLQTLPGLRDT
Particulars: cited from earlier work; for Binding Signal (fold over 6E7 parental antibody) 1st screen 110 nM or 10 nM: 10 nM Ab concentration (values not marked *).

B1: V48: 6E7 variant: VH T30G, T58V, Q99M; VL N56T, F94L (antibody, V domains shown)
VH: EVQLVQSGAEVKKPGESLKISCKGSGYSFGSYWIAWVRQMPGKGLEWMGIIYPGDSDVRYSPSFQGQVTISADKSISTAYLQWSSLKASDTAMYFCARMRTFYYDSSDYFDYWGQGTLVTVSS
VL: DIQMTQSPSSVSASVGDRVTITCRASQGISSWLAWYQQKPGKAPKLLIYAASSLQTGVPSRFSGSGSGTDFTLTISSLQPEDFATYFCQQADSLPRTFGQGTKLEIK
B1: the “Binding Signal (fold over 6E7 parental antibody) 1st screen 110 nM or 10 nM” value is recorded as 2.42 fold over 6E7 parental antibod, the “Binding Signal (fold over 6E7 parental antibody) 2nd screen 2 nM” value is 2.30 fold over 6E7 parental antibod and the “Binding Signal (fold over 6E7 parental antibody) 2nd screen 10 nM” value is listed as 2.54 fold over 6E7 parental antibod.

B2: V50: 6E7 variant: VH T30G, I50V, F110L; VL L54R, F94L (antibody, V domains shown)
VH: EVQLVQSGAEVKKPGESLKISCKGSGYSFGSYWIAWVRQMPGKGLEWMGVIYPGDSDTRYSPSFQGQVTISADKSISTAYLQWSSLKASDTAMYFCARQRTFYYDSSDYLDYWGQGTLVTVSS
VL: DIQMTQSPSSVSASVGDRVTITCRASQGISSWLAWYQQKPGKAPKLLIYAASSRQNGVPSRFSGSGSGTDFTLTISSLQPEDFATYFCQQADSLPRTFGQGTKLEIK
With B2, the “Binding Signal (fold over 6E7 parental antibody) 1st screen 110 nM or 10 nM” value is on record as 4.10 fold over 6E7 parental antibod, the “Binding Signal (fold over 6E7 parental antibody) 2nd screen 2 nM” value is given as 3.39 fold over 6E7 parental antibod and the “Binding Signal (fold over 6E7 parental antibody) 2nd screen 10 nM” value is given as 4.16 fold over 6E7 parental antibod.

B3: V52: 6E7 variant: VH T30E, Q99G; VL N56R, S93R (antibody, V domains shown)
VH: EVQLVQSGAEVKKPGESLKISCKGSGYSFESYWIAWVRQMPGKGLEWMGIIYPGDSDTRYSPSFQGQVTISADKSISTAYLQWSSLKASDTAMYFCARGRTFYYDSSDYFDYWGQGTLVTVSS
VL: DIQMTQSPSSVSASVGDRVTITCRASQGISSWLAWYQQKPGKAPKLLIYAASSLQRGVPSRFSGSGSGTDFTLTISSLQPEDFATYFCQQADRFPRTFGQGTKLEIK
On to B3, for which the “Binding Signal (fold over 6E7 parental antibody) 1st screen 110 nM or 10 nM” value is given as 3.00 fold over 6E7 parental antibod, the “Binding Signal (fold over 6E7 parental antibody) 2nd screen 2 nM” value is recorded as 1.78 fold over 6E7 parental antibod and the “Binding Signal (fold over 6E7 parental antibody) 2nd screen 10 nM” value is given as 3.09 fold over 6E7 parental antibod.

B4: V51: 6E7 variant: VH T58V, Q99G, Y112N; VL L54R (antibody, V domains shown)
VH: EVQLVQSGAEVKKPGESLKISCKGSGYSFTSYWIAWVRQMPGKGLEWMGIIYPGDSDVRYSPSFQGQVTISADKSISTAYLQWSSLKASDTAMYFCARGRTFYYDSSDYFDNWGQGTLVTVSS
VL: DIQMTQSPSSVSASVGDRVTITCRASQGISSWLAWYQQKPGKAPKLLIYAASSRQNGVPSRFSGSGSGTDFTLTISSLQPEDFATYFCQQADSFPRTFGQGTKLEIK
B4: the “Binding Signal (fold over 6E7 parental antibody) 1st screen 110 nM or 10 nM” value is listed as 2.81 fold over 6E7 parental antibod, the “Binding Signal (fold over 6E7 parental antibody) 2nd screen 2 nM” value was 1.83 fold over 6E7 parental antibod and the “Binding Signal (fold over 6E7 parental antibody) 2nd screen 10 nM” value is reported as 3.18 fold over 6E7 parental antibod.

B5: V49: 6E7 variant: VH T30N, I50T, Y60L, Q99S; VL L54R, F94Y (antibody, V domains shown)
VH: EVQLVQSGAEVKKPGESLKISCKGSGYSFNSYWIAWVRQMPGKGLEWMGTIYPGDSDTRLSPSFQGQVTISADKSISTAYLQWSSLKASDTAMYFCARSRTFYYDSSDYFDYWGQGTLVTVSS
VL: DIQMTQSPSSVSASVGDRVTITCRASQGISSWLAWYQQKPGKAPKLLIYAASSRQNGVPSRFSGSGSGTDFTLTISSLQPEDFATYFCQQADSYPRTFGQGTKLEIK
B5: the “Binding Signal (fold over 6E7 parental antibody) 1st screen 110 nM or 10 nM” value is on record as 6.51 fold over 6E7 parental antibod, the “Binding Signal (fold over 6E7 parental antibody) 2nd screen 2 nM” value is listed as 5.02 fold over 6E7 parental antibod and the “Binding Signal (fold over 6E7 parental antibody) 2nd screen 10 nM” value is recorded as 6.58 fold over 6E7 parental antibod.
